Measured values taken from patent US20240209076A1 (KODIAK SCIENCES, published 2024).
Numbering of substitutions follows the chain as printed. Names may count otherwise. One block for each binder: values may come before it.

Molecular target: human IL-6 (human, UniProt P05231 30-212)
Assay: SPR (Biacore), supernatant antibody on Protein A chip, IL-6 flowed, 37 C
Protocol: Antibodies were captured on a Protein A chip (GE) by injecting 1:20 cell supernatant dilutions at 10 μL/min for 60 seconds. […] The sensor chip was regenerated by a 60 seconds injection of 10 mM Glycine pH 1.7 at the flow rate of 50 μL/min. […] For this setup, 1 μg/mL of purified antibody was injected over a Protein A chip at 10 μL/min for 25 seconds. […] The sensor chip was regenerated by a 60 seconds injection of 10 mM Glycine pH 1.7 at flow rate of 50 μL/min. Data analysis for supernatant and purified samples were performed using BIAevaluation software (GE). All sensorgrams were double reference subtracted and fit using a 1:1 Langmuir binding model.

Chain of human IL-6 (P05231 30-212 limits assumed): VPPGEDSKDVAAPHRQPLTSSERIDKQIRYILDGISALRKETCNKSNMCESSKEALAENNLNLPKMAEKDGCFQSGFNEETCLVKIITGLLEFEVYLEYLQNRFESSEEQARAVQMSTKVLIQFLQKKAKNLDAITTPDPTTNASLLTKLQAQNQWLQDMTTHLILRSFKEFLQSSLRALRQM

- Kd: 559 pM
- koff: 0.000899 s⁻¹
- kon: 1.61e+06 M⁻¹ s⁻¹
B1: anti-IL-6 antibody, heavy chain I51A, G66D / light chain M32L, M50D, N52S, M88Q (antibody, human IgG1, V domains shown)
VH: EVQLVESGGGLVQPGGSLRLSCAASGFTFSPFAMSWVRQAPGKGLEWVAKASPGGSWTYYSDTVTDRFTFSLDTSKSTAYLQMNSLRAEDTAVYYCARQLWGYYALDIWGQGTLVTVSS
VL: DIQLTQSPSSLSASVGDRVTITCSASISVSYLYWYQQKPGKAPKLLIYDDSSLASGVPSRFSGSGSGTDFTLTISSLQPEDFATYYCQQWSGYPYTFGQGTKVEIK
notes: Human IgG1

- Kd: 575 pM
- koff: 0.00113 s⁻¹
- kon: 1.96e+06 M⁻¹ s⁻¹
B2: anti-IL-6 antibody, heavy chain I51Q, G66D / light chain M32L, M50D, N52S, M88Q (antibody, human IgG1, V domains shown)
VH: B1 VH with A51Q
VL: B1 VL
notes: Human IgG1

- Kd: 349 pM
- koff: 0.000601 s⁻¹
- kon: 1.72e+06 M⁻¹ s⁻¹
B3: anti-IL-6 antibody, heavy chain I51K, G66D / light chain M32L, M50D, N52S, M88Q (antibody, human IgG1, V domains shown)
VH: B1 VH with A51K
VL: B1 VL
notes: Human IgG1

- Kd: 2640 pM
- koff: 0.00346 s⁻¹
- kon: 1.31e+06 M⁻¹ s⁻¹
B4: anti-IL-6 antibody, heavy chain S35K, G66D / light chain M32L, M50D, N52S, M88Q (antibody, human IgG1, V domains shown)
VH: B1 VH with S35K, A51I
VL: B1 VL
notes: Human IgG1

- Kd: 980 pM
- koff: 0.00161 s⁻¹
- kon: 1.64e+06 M⁻¹ s⁻¹
B5: anti-IL-6 antibody, heavy chain I51L, G66D / light chain M32L, M50D, N52S, M88Q (antibody, human IgG1, V domains shown)
VH: B1 VH with A51L
VL: B1 VL
notes: Human IgG1

- Kd: 1110 pM
- koff: 0.00195 s⁻¹
- kon: 1.76e+06 M⁻¹ s⁻¹
B6: anti-IL-6 antibody, heavy chain I51V, G66D / light chain M32L, M50D, N52S, M88Q (antibody, human IgG1, V domains shown)
VH: B1 VH with A51V
VL: B1 VL
notes: Human IgG1

- Kd: 27100 pM
- koff: 0.00548 s⁻¹
- kon: 202000 M⁻¹ s⁻¹
B7: anti-IL-6 antibody, heavy chain S35P, G66D / light chain M32L, M50D, N52S, M88Q (antibody, human IgG1, V domains shown)
VH: B1 VH with S35P, A51I
VL: B1 VL
notes: Human IgG1

- Kd: 4840 pM
- koff: 0.00383 s⁻¹
- kon: 791000 M⁻¹ s⁻¹
B8: anti-IL-6 antibody, heavy chain I51W, G66D / light chain M32L, M50D, N52S, M88Q (antibody, human IgG1, V domains shown)
VH: B1 VH with A51W
VL: B1 VL
notes: Human IgG1

- Kd: 268 pM
- koff: 0.000458 s⁻¹
- kon: 1.7e+06 M⁻¹ s⁻¹
B9: anti-IL-6 antibody, heavy chain T63A, G66D / light chain M32L, M50D, N52S, M88Q (antibody, human IgG1, V domains shown)
VH: B1 VH with A51I, T63A
VL: B1 VL
notes: Human IgG1

- Kd: 35.7 pM
- koff: 5.8e-05 s⁻¹
- kon: 1.63e+06 M⁻¹ s⁻¹
B10: anti-IL-6 antibody, heavy chain I51R, G66D / light chain M32L, M50D, N52S, M88Q (antibody, human IgG1, V domains shown)
VH: B1 VH with A51R
VL: B1 VL
notes: Human IgG1

- Kd: 217 pM
- koff: 0.000401 s⁻¹
- kon: 1.85e+06 M⁻¹ s⁻¹
B11: anti-IL-6 antibody, heavy chain I51S, G66D / light chain M32L, M50D, N52S, M88Q (antibody, human IgG1, V domains shown)
VH: B1 VH with A51S
VL: B1 VL
notes: Human IgG1

- Kd: 4040 pM
- koff: 0.0247 s⁻¹
- kon: 6.1e+06 M⁻¹ s⁻¹
B12: anti-IL-6 antibody, heavy chain I51Y, G66D / light chain M32L, M50D, N52S, M88Q (antibody, human IgG1, V domains shown)
VH: B1 VH with A51Y
VL: B1 VL
notes: Human IgG1

- Kd: 609 pM
- koff: 0.000781 s⁻¹
- kon: 1.28e+06 M⁻¹ s⁻¹
B13: anti-IL-6 antibody, heavy chain S35G, G66D / light chain M32L, M50D, N52S, M88Q (antibody, human IgG1, V domains shown)
VH: B1 VH with S35G, A51I
VL: B1 VL
notes: Human IgG1

- Kd: 9580 pM
- koff: 0.00799 s⁻¹
- kon: 834000 M⁻¹ s⁻¹
B14: anti-IL-6 antibody, heavy chain I51D, G66D / light chain M32L, M50D, N52S, M88Q (antibody, human IgG1, V domains shown)
VH: B1 VH with A51D
VL: B1 VL
notes: Human IgG1

- Kd: 246 pM
- koff: 0.000419 s⁻¹
- kon: 1.7e+06 M⁻¹ s⁻¹
B15: anti-IL-6 antibody, heavy chain T63P, G66D / light chain M32L, M50D, N52S, M88Q (antibody, human IgG1, V domains shown)
VH: B1 VH with A51I, T63P
VL: B1 VL
notes: Human IgG1

- Kd: 34600 pM
- koff: 0.00591 s⁻¹
- kon: 171000 M⁻¹ s⁻¹
B16: anti-IL-6 antibody, heavy chain S35W, G66D / light chain M32L, M50D, N52S, M88Q (antibody, human IgG1, V domains shown)
VH: B1 VH with S35W, A51I
VL: B1 VL
notes: Human IgG1

- Kd: 274 pM
- koff: 0.000459 s⁻¹
- kon: 1.67e+06 M⁻¹ s⁻¹
B17: anti-IL-6 antibody, heavy chain T63F, G66D / light chain M32L, M50D, N52S, M88Q (antibody, human IgG1, V domains shown)
VH: B1 VH with A51I, T63F
VL: B1 VL
notes: Human IgG1

- Kd: 1620 pM
- koff: 0.00147 s⁻¹
- kon: 904000 M⁻¹ s⁻¹
B18: anti-IL-6 antibody, heavy chain S35I, G66D / light chain M32L, M50D, N52S, M88Q (antibody, human IgG1, V domains shown)
VH: B1 VH with S35I, A51I
VL: B1 VL
notes: Human IgG1

- Kd: 753 pM
- koff: 0.00177 s⁻¹
- kon: 2.35e+06 M⁻¹ s⁻¹
B19: anti-IL-6 antibody, heavy chain S35D, G66D / light chain M32L, M50D, N52S, M88Q (antibody, human IgG1, V domains shown)
VH: B1 VH with S35D, A51I
VL: B1 VL
notes: Human IgG1

- Kd: 4450 pM
- koff: 0.00611 s⁻¹
- kon: 1.37e+06 M⁻¹ s⁻¹
B20: anti-IL-6 antibody, heavy chain I51F, G66D / light chain M32L, M50D, N52S, M88Q (antibody, human IgG1, V domains shown)
VH: B1 VH with A51F
VL: B1 VL
notes: Human IgG1

- Kd: 500 pM
- koff: 0.00104 s⁻¹
- kon: 2.07e+06 M⁻¹ s⁻¹
B21: anti-IL-6 antibody, heavy chain I51H, G66D / light chain M32L, M50D, N52S, M88Q (antibody, human IgG1, V domains shown)
VH: B1 VH with A51H
VL: B1 VL
notes: Human IgG1

- Kd: 867 pM
- koff: 0.00189 s⁻¹
- kon: 2.18e+06 M⁻¹ s⁻¹
B22: anti-IL-6 antibody, heavy chain S35E, G66D / light chain M32L, M50D, N52S, M88Q (antibody, human IgG1, V domains shown)
VH: B1 VH with S35E, A51I
VL: B1 VL
notes: Human IgG1

- Kd: 1330 pM
- koff: 0.00137 s⁻¹
- kon: 1.03e+06 M⁻¹ s⁻¹
B23: anti-IL-6 antibody, heavy chain S35V, G66D / light chain M32L, M50D, N52S, M88Q (antibody, human IgG1, V domains shown)
VH: B1 VH with S35V, A51I
VL: B1 VL
notes: Human IgG1

- Kd: 2140 pM
- koff: 0.00196 s⁻¹
- kon: 914000 M⁻¹ s⁻¹
B24: anti-IL-6 antibody, heavy chain I51E, G66D / light chain M32L, M50D, N52S, M88Q (antibody, human IgG1, V domains shown)
VH: B1 VH with A51E
VL: B1 VL
notes: Human IgG1

- Kd: 3430 pM
- koff: 0.00404 s⁻¹
- kon: 1.18e+06 M⁻¹ s⁻¹
B25: anti-IL-6 antibody, heavy chain S35Y, G66D / light chain M32L, M50D, N52S, M88Q (antibody, human IgG1, V domains shown)
VH: B1 VH with S35Y, A51I
VL: B1 VL
notes: Human IgG1

- Kd: 283 pM
- koff: 0.000454 s⁻¹
- kon: 1.6e+06 M⁻¹ s⁻¹
B26: anti-IL-6 antibody, heavy chain T63L, G66D / light chain M32L, M50D, N52S, M88Q (antibody, human IgG1, V domains shown)
VH: B1 VH with A51I, T63L
VL: B1 VL
notes: Human IgG1

- Kd: 2590 pM
- koff: 0.00243 s⁻¹
- kon: 942000 M⁻¹ s⁻¹
B27: anti-IL-6 antibody, heavy chain S35L, G66D / light chain M32L, M50D, N52S, M88Q (antibody, human IgG1, V domains shown)
VH: B1 VH with S35L, A51I
VL: B1 VL
notes: Human IgG1

- Kd: 652 pM
- koff: 0.000912 s⁻¹
- kon: 1.4e+06 M⁻¹ s⁻¹
B28: anti-IL-6 antibody, heavy chain I51G, G66D / light chain M32L, M50D, N52S, M88Q (antibody, human IgG1, V domains shown)
VH: B1 VH with A51G
VL: B1 VL
notes: Human IgG1

- Kd: 280 pM
- koff: 0.000481 s⁻¹
- kon: 1.72e+06 M⁻¹ s⁻¹
B29: anti-IL-6 antibody, heavy chain T63H, G66D / light chain M32L, M50D, N52S, M88Q (antibody, human IgG1, V domains shown)
VH: B1 VH with A51I, T63H
VL: B1 VL
notes: Human IgG1

- Kd: 261 pM
- koff: 0.00045 s⁻¹
- kon: 1.73e+06 M⁻¹ s⁻¹
B30: anti-IL-6 antibody, heavy chain T63G, G66D / light chain M32L, M50D, N52S, M88Q (antibody, human IgG1, V domains shown)
VH: B1 VH with A51I, T63G
VL: B1 VL
notes: Human IgG1

- Kd: 657 pM
- koff: 0.00126 s⁻¹
- kon: 1.93e+06 M⁻¹ s⁻¹
B31: anti-IL-6 antibody, heavy chain S35A, G66D / light chain M32L, M50D, N52S, M88Q (antibody, human IgG1, V domains shown)
VH: B1 VH with S35A, A51I
VL: B1 VL
notes: Human IgG1

- Kd: 288 pM
- koff: 0.000446 s⁻¹
- kon: 1.55e+06 M⁻¹ s⁻¹
B32: anti-IL-6 antibody, heavy chain T63I, G66D / light chain M32L, M50D, N52S, M88Q (antibody, human IgG1, V domains shown)
VH: B1 VH with A51I, T63I
VL: B1 VL
notes: Human IgG1

- Kd: 249 pM
- koff: 0.000413 s⁻¹
- kon: 1.66e+06 M⁻¹ s⁻¹
B33: anti-IL-6 antibody, heavy chain T63D, G66D / light chain M32L, M50D, N52S, M88Q (antibody, human IgG1, V domains shown)
VH: B1 VH with A51I, T63D
VL: B1 VL
notes: Human IgG1

- Kd: 233 pM
- koff: 0.000478 s⁻¹
- kon: 2.05e+06 M⁻¹ s⁻¹
B34: anti-IL-6 antibody, heavy chain I51T, G66D / light chain M32L, M50D, N52S, M88Q (antibody, human IgG1, V domains shown)
VH: B1 VH with A51T
VL: B1 VL
notes: Human IgG1

- Kd: 3170 pM
- koff: 0.00484 s⁻¹
- kon: 1.53e+06 M⁻¹ s⁻¹
B35: anti-IL-6 antibody, heavy chain S35F, G66D / light chain M32L, M50D, N52S, M88Q (antibody, human IgG1, V domains shown)
VH: B1 VH with S35F, A51I
VL: B1 VL
notes: Human IgG1

- Kd: 498 pM
- koff: 0.000711 s⁻¹
- kon: 1.43e+06 M⁻¹ s⁻¹
B36: anti-IL-6 antibody, heavy chain S35T, G66D / light chain M32L, M50D, N52S, M88Q (antibody, human IgG1, V domains shown)
VH: B1 VH with S35T, A51I
VL: B1 VL
notes: Human IgG1

- Kd: 300 pM
- koff: 0.000626 s⁻¹
- kon: 2.09e+06 M⁻¹ s⁻¹
B37: anti-IL-6 antibody, heavy chain S35Q, G66D / light chain M32L, M50D, N52S, M88Q (antibody, human IgG1, V domains shown)
VH: B1 VH with S35Q, A51I
VL: B1 VL
notes: Human IgG1
